The record followed here is patent publication US20080039336A1.

The target of the experiment is TRPM4 of rat-derived INS-1 and RINm5F cells (endogenous) (rat) (UniProt Q9ESQ5). Put plainly: cell-based or functional assay.
TRPM4 of rat-derived INS-1 and RINm5F cells (endogenous) (rat), sequence (Q9ESQ5 whole entry): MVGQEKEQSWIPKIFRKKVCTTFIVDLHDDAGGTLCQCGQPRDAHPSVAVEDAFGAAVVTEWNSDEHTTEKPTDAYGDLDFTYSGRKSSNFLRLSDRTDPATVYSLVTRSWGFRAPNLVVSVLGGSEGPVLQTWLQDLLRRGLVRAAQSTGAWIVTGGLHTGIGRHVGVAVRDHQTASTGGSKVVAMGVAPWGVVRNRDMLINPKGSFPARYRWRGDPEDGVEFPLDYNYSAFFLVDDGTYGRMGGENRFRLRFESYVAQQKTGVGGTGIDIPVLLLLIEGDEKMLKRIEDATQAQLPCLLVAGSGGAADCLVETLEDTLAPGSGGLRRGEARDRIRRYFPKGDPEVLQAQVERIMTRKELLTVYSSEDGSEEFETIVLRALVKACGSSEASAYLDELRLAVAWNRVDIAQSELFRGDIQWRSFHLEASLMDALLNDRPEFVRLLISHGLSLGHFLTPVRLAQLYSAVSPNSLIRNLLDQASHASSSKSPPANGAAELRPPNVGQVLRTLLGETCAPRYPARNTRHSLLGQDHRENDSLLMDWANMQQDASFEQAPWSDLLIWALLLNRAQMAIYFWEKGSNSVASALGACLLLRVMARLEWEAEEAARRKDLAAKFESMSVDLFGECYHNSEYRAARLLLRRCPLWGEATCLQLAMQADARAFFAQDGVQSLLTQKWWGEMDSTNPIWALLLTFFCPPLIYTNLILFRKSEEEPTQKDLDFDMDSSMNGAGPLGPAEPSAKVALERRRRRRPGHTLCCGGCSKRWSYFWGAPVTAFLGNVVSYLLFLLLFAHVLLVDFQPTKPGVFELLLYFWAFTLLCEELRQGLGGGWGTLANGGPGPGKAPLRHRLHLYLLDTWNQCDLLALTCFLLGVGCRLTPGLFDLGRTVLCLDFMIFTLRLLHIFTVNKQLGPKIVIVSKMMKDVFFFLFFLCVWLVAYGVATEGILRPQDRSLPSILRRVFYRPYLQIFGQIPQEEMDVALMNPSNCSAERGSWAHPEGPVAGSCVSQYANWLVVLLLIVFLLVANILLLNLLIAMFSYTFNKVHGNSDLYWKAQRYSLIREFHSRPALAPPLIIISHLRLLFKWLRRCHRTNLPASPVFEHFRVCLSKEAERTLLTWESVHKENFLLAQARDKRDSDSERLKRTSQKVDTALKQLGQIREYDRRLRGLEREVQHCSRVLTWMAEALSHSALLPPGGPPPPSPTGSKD

With ΔN-TRPM4 (from UniProt Q8TD43 178-1214), the insulin secretion of INS-1 cells at 25 mM glucose, fold over basal 4 mM, static incubation (mock-transfected control ~2.2-fold) was determined as 1.3 fold.
